Molecular target: the molecule itself
Assay: SEC; Superdex 200 16/600 GL column, FPLC buffer (20 mM Tris pH 8.0, 100 mM NaCl); calibrated with conalbumin, ovalbumin, carbonic anhydrase, ribonuclease A and aprotinin; molecular weight from Kav

B1: His-tagged Rv3634c (H3634), wild type, UDP-Gal/Glc and UDP-GalNAc 4-epimerase from Mycobacterium tuberculosis H37Rv (enzyme)
chain: MRALVTGAAGFIGSTLVDRLLADGHSVVGLDNFATGRATNLEHLADNSAHVFVEADIVTADLHAILEQHRPEVVFHLAAQIDVRRSVADPQFDAAVNVIGTVRLAEAARQTGVRKIVHTSSGGSIYGTPPEYPTPETAPTDPASPYAAGKVAGEIYLNTFRHLYGLDCSHIAPANVYGPRQDPHGEAGVVAIFAQALLSGKPTRVFGDGTNTRDYVFVDDVVDAFVRVSADVGGGLRFNIGTGKETSDRQLHSAVAAAVGGPDDPEFHPPRLGDLKRSCLDIGLAERVLGWRPQIELADGVRRTVEYFRHKHTD
notes: the protein is called H3634 (His-tagged Rv3634c) in the size exclusion experiment; also called WT; WT H3634; not shown: His6, N-terminal, kept
For B1, the “stoichiometry N” value was 2.
